Source: paper doi:10.1101/2020.02.11.943597

Key:
[1] = molecular target: T1, N-cadherin (human (endogenous in primary fibroblasts)), P19022; assay: AFM single-cell force spectroscopy; settings: remark: other sources report otherwise
T1 chain: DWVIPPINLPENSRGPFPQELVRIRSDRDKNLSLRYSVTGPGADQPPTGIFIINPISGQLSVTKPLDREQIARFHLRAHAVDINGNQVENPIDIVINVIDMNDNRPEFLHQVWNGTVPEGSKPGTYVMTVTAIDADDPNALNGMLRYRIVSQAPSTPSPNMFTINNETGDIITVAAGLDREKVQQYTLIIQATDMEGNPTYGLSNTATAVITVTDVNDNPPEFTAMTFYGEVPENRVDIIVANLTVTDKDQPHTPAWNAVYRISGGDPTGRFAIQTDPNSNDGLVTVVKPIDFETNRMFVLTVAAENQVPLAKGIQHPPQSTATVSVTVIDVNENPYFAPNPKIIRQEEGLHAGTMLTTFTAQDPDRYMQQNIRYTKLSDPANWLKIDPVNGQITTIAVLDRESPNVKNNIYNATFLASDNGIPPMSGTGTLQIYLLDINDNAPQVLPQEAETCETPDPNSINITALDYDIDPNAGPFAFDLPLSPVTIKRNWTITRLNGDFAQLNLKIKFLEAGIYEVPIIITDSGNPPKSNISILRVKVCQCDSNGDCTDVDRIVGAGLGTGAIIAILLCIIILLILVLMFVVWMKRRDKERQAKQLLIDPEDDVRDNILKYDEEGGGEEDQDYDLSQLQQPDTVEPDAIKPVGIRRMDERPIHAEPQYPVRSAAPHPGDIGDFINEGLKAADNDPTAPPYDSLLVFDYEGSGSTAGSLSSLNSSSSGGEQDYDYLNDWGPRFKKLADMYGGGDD

[2] = molecular target: T1, N-cadherin (human (endogenous in …)); assay: AFM single-cell force spectroscopy; settings: remark: other sources report otherwise

B1: N-cadherin, P19022 160-906 (natural protein)
chain: T1 chain
median rupture force [1]: 51.9 pN
median rupture force [2]: 45.2 pN
